Measurements as given in the supplement of paper PMC9732359.
± gives the uncertainty stated by the source.

Experiment: protein stability index of a GFP-peptide fusion (yeast GPS) (PSI 1-4); higher = more stable; sorted into four equal gates, so the index is relative within each strain
Outline: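 Tiled 17-residue yeast protein peptides were fused downstream of GFP in a plasmid that also expresses Cherry, and the pooled library was carried in yeast. Mid-log cultures in leucine-free medium were sorted into four equal gates by GFP/Cherry fluorescence ratio, and plasmids from each gate were PCR-amplified and Illumina-sequenced, with reads assigned to strains by barcodes. The protein stability index for each peptide was each gate's read frequency times its gate number, summed.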

Row | Sequence | protein stability index (doa10∆) | protein stability index (pdr5∆) | protein stability index (san1∆) | protein stability index (ubr1∆)
1 | ATQSGGVRPFGVSLLIA [PRE8] | 1.29 ± 0.071 | 1.62 ± 0.071 | 1.4 ± 0.17 | 1.51 ± 0.064
2 | FFYNISSIHWNNWFSLP [SIN4] | 2.09 ± 0.036 | 1.96 ± 0.038 | 2.03 ± 0.05 | 2.13 ± 0.036
3 | MRDKSFGRTLASVTKEI [RPL12A] | 3.25 ± 0.1 | 3.08 ± 0.12 | 2.87 ± 0.13 | 2.81 ± 0.18
4 | AVEFESVPLRKGDRALL [BRR2] | 3.16 ± 0.29 | 3.45 ± 0.14 | 2.98 ± 0.075 | 2.87 ± 0.11
5 | QPYEDRPFEGLFVISTE [RRP45] | 2.96 ± 0.052 | 3.12 ± 0.048 | 3.11 ± 0.048 | 3.05 ± 0.038
6 | EIIPLQDYYIIGANIYQ [MED6] | 2.97 ± 0.064 | 3.07 ± 0.052 | 3.16 ± 0.04 | 3.1 ± 0.044
7 | LSILNEIKKVTQIVAKF [SIN4] | 3.13 ± 0.16 | 2.39 ± 0.14 | 2.37 ± 0.11 | 2.87 ± 0.091
8 | ATPGRLIDSLENHLLVM [PRP28] | 2.66 ± 0.067 | 2.37 ± 0.05 | 2.06 ± 0.11 | 2.1 ± 0.06
9 | YSEEPREKVRKLSQYVQ [FAS2] |  |  |  | 3.16 ± 0.26
10 | STATRNVTMIDDLIHFT [COR1] | 2.68 ± 0.097 | 2.81 ± 0.092 | 2.82 ± 0.086 | 2.89 ± 0.085
11 | SGTAATGAASNQSSFNF [YOR098C/NUP1] | 2.7 ± 0.072 | 3.01 ± 0.09 | 2.68 ± 0.12 | 3.07 ± 0.053
12 | FCGKKTVKRGAAGIWTC [RPL43A] | 1.79 ± 0.072 | 1.88 ± 0.071 | 2.19 ± 0.11 | 1.92 ± 0.059
13 | SKTGSVDTLHNKEGTLE [SSN2] | 3.46 ± 0.24 | 3.14 ± 0.16 | 3.19 ± 0.083 | 3.4 ± 0.14
14 | PNIMLIFGSGFGSADDT [FAS1] | 3.07 ± 0.07 | 2.92 ± 0.073 | 3.12 ± 0.067 | 2.24 ± 0.065
15 | LRKQKDSSTTSSNSQQS [ITC1] | 3.12 ± 0.059 | 3.04 ± 0.066 | 3.07 ± 0.06 | 3.19 ± 0.059
16 | LFLYKELVKAHLGERAA [RPC82] | 2.72 ± 0.086 | 2.96 ± 0.09 | 2.88 ± 0.061 | 2.77 ± 0.11
17 | GKYTLGYKSTVKSLRQG [RPL30] | 2.25 ± 0.072 | 2.34 ± 0.049 | 2.54 ± 0.09 | 2.47 ± 0.048
18 | TQIANAGASPMVNTQQP [PRE4] | 2.94 ± 0.11 | 3.07 ± 0.09 | 2.82 ± 0.075 | 2.82 ± 0.18
19 | NNGLPMKNKAETTTEED [ITC1] | 2.35 ± 0.29 | 3.18 ± 0.1 | 2.94 ± 0.092 | 3.03 ± 0.12
20 | ESGLRPVSLLNSQLVGK [PCI8] | 3.31 ± 0.13 | 3.43 ± 0.096 | 3.27 ± 0.061 | 3.09 ± 0.27
21 | LSIICVGGHNVTIREQI [SIR3] | 2.22 ± 0.069 | 1.65 ± 0.042 | 1.78 ± 0.092 | 1.81 ± 0.056
22 | QLKTGLAAIVSTVIEEF [YGL172W/NUP49] | 2.93 ± 0.094 | 2.79 ± 0.08 | 2.83 ± 0.1 | 3.04 ± 0.076
23 | QLNKVVDQLFEKASVLY [RPN6] | 2.55 ± 0.051 | 2.06 ± 0.052 | 2.62 ± 0.05 | 2.43 ± 0.055
24 | QLEYKRGEIREIEQVCK [MED7] | 1.49 ± 0.11 | 1.53 ± 0.069 | 2.2 ± 0.18 | 1.45 ± 0.07
25 | EQDILDLIAEQVVTDYN [SSN2] | 3 ± 0.17 | 3.44 ± 0.12 | 3.08 ± 0.18 | 2.47 ± 0.14
26 | LDPSLRAPIYHSKFRSS [YML031W/NDC1] | 2.02 ± 0.093 | 2.34 ± 0.064 | 1.71 ± 0.25 | 2.35 ± 0.072
27 | KGKYRNRRWTQRRGPLV [RPL4A] | 2.97 ± 0.17 | 3.29 ± 0.18 |  | 

Row | Sequence | protein stability index (doa10∆) | protein stability index (pdr5∆) | protein stability index (san1∆) | protein stability index (ubr1∆)
28 | AGIVPVSANTPKSLNSN [SWI1] | 3.07 ± 0.059 | 3.04 ± 0.066 | 3.04 ± 0.048 | 3.22 ± 0.043
29 | MVMREETIKSLEDPYKY [CSN9] | 1.62 ± 0.08 | 1.66 ± 0.078 | 1.25 ± 0.2 | 1.73 ± 0.054
30 | IIGTFSDSYKVSLQNFS [RRP40] | 2.11 ± 0.099 | 1.79 ± 0.079 | 2.24 ± 0.11 | 1.96 ± 0.054
31 | LRFGEGASGEERLMSRP [PUP2] | 3.52 ± 0.15 | 3.36 ± 0.12 | 3.21 ± 0.1 | 3.23 ± 0.065
32 | EIRRFQKSTELLIRKLP [HHT1] | 2.64 ± 0.13 | 2.74 ± 0.095 | 1.87 ± 0.24 | 2.25 ± 0.12
33 | LLIADSRRPEPKKFGGK [RPS16A] | 3 ± 0.091 | 3.12 ± 0.077 | 3.23 ± 0.065 | 3.07 ± 0.05
34 | LELQVAKTFIDLESSSP [RPS7B] | 3.17 ± 0.071 | 3.2 ± 0.063 | 2.96 ± 0.11 | 3.11 ± 0.064
35 | HSNLEKISNSKLLSLLR [SIR4] | 2.4 ± 0.063 | 2.65 ± 0.052 | 2.5 ± 0.051 | 2.48 ± 0.047
36 | NNGSSDKSLDSSNASFN [MED1] | 2.92 ± 0.13 | 3.04 ± 0.15 | 3.08 ± 0.22 | 2.98 ± 0.12
37 | FSPDGHIFQVEYALEAV [PRE6] | 3 ± 0.057 | 3.07 ± 0.054 | 3.1 ± 0.035 | 3.18 ± 0.037
38 | ASKKFGKICLILTRLNG [SSN2] | 1.99 ± 0.17 | 2.14 ± 0.27 |  | 
39 | PSDWQRNSFIRDMIMKR [ITC1] | 3.01 ± 0.072 | 3.03 ± 0.073 | 3.21 ± 0.055 | 2.89 ± 0.047
40 | TAQKYPIYTGDGWVKLT [YMR153W/NUP53] | 1.63 ± 0.062 | 1.77 ± 0.06 | 1.62 ± 0.1 | 1.21 ± 0.041
41 | EPLAPGNDNLIKAPTVA [YLR335W/NUP2] | 2.57 ± 0.067 | 2.77 ± 0.064 | 2.53 ± 0.053 | 2.88 ± 0.059
42 | DQSIASGNTNGAGSAFG [YOR098C/NUP1] | 3.26 ± 0.072 | 2.49 ± 0.06 | 2.44 ± 0.079 | 2.49 ± 0.078
43 | SKNSPAEDDVIIPQDIL [YJR042W/NUP85] | 3.19 ± 0.13 | 2.96 ± 0.12 | 3.07 ± 0.12 | 3.36 ± 0.19
44 | TEGRSRDGGLRLGEMER [RET1] | 1.35 ± 0.081 | 1.82 ± 0.12 | 1.49 ± 0.28 | 1.58 ± 0.071
45 | NVMTPREQYETQVALNE [UBP6] | 3.17 ± 0.087 | 3.22 ± 0.16 | 2.83 ± 0.13 | 3.05 ± 0.091
46 | LRHMPLASIPDIFITPT [SSN2] | 1.78 ± 0.054 | 1.69 ± 0.054 | 1.47 ± 0.068 | 1.61 ± 0.043
47 | AVARLKSMNKSAINQYN [SNF2] | 1.81 ± 0.073 | 2.33 ± 0.076 | 2.34 ± 0.052 | 2.88 ± 0.032
48 | KNLSLQTGTKPVLKKKA [COR1] | 2.95 ± 0.07 | 3.05 ± 0.095 | 3.09 ± 0.06 | 2.79 ± 0.076
49 | LVRSIIAFDDLIENKIQ [RPN8] | 1.94 ± 0.075 | 1.92 ± 0.12 | 2.45 ± 0.082 | 2.43 ± 0.099
50 | DEDDDQPMISPDNSIFG [SWI3] | 3.22 ± 0.078 | 3.35 ± 0.083 | 3.2 ± 0.086 | 2.94 ± 0.088
51 | VVSILEAGDSDILTTLA [RPL30] | 3.12 ± 0.059 | 2.92 ± 0.074 | 3.01 ± 0.068 | 3.03 ± 0.061
52 | IRYNAKRRNWRRTKMNI [RPL39] | 3.23 ± 0.095 | 3.23 ± 0.093 | 3.07 ± 0.095 | 3.32 ± 0.057
53 | SVALHRHSNALVDILPP [RPT3] | 1.63 ± 0.047 | 2.1 ± 0.056 | 2 ± 0.07 | 1.94 ± 0.041
54 | NVGELIEKNVMESIGSD [RRP4] | 2.54 ± 0.059 | 3.03 ± 0.075 | 2.62 ± 0.098 | 2.39 ± 0.065
